In the supplement of paper PMC10567573 one finds protein stability index data, which are given here for 94 variants.

B1: EMD (parent)
chain: YQSKGYNDDYYEESYFTTRTYGEP
B2: MTMR15 (parent)
chain: YVKAKKSIDKDEEFAGSSPQSSKS
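Further: lentivirally expressed fusions sorted by FACS into six bins by GFP to DsRed ratio, PSI derived from sequencing read proportions per bin multiplied by bin number.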

The variants in one data set derive from B1. Kind of data set: protein stability index of a GFP-peptide fusion (GPS, HEK-293T) (PSI 1-6); higher = more stable. The following applies: c terminus: a fixed tail appended.
Turning to YHSKGYNDDYYEESYFTTRTYGEP [Q2H], the protein stability index was found to be 2.03.

Consider YMSKGYNDDYYEESYFTTRTYGEP [Q2M], for which the protein stability index came out at 2.36.

On to YFSKGYNDDYYEESYFTTRTYGEP [Q2F], for which the protein stability index amounted to 1.93.

Take YGSKGYNDDYYEESYFTTRTYGEP [Q2G]: the protein stability index is 2.53.

As for YLSKGYNDDYYEESYFTTRTYGEP [Q2L], the protein stability index amounted to 2.5.

As to YRSKGYNDDYYEESYFTTRTYGEP [Q2R], the protein stability index amounted to 2.54.

In the case of YISKGYNDDYYEESYFTTRTYGEP [Q2I], the protein stability index came to 1.93.

YWSKGYNDDYYEESYFTTRTYGEP [Q2W]: the protein stability index turned out to be 1.59.

YYSKGYNDDYYEESYFTTRTYGEP [Q2Y]: the protein stability index was determined as 2.01.

Regarding YDSKGYNDDYYEESYFTTRTYGEP [Q2D], the protein stability index came out at 3.5.

Take YVSKGYNDDYYEESYFTTRTYGEP [Q2V]: the protein stability index worked out at 1.9.

In the case of YCSKGYNDDYYEESYFTTRTYGEP [Q2C], the protein stability index is 2.12.

With YSSKGYNDDYYEESYFTTRTYGEP [Q2S], the protein stability index was 2.65.

YASKGYNDDYYEESYFTTRTYGEP [Q2A]: the protein stability index worked out at 2.15.

With YKSKGYNDDYYEESYFTTRTYGEP [Q2K], the protein stability index is 3.13.

Consider YPSKGYNDDYYEESYFTTRTYGEP [Q2P], for which the protein stability index was 2.29.

Regarding YNSKGYNDDYYEESYFTTRTYGEP [Q2N], the protein stability index came to 3.11.

Turning to YTSKGYNDDYYEESYFTTRTYGEP [Q2T], the protein stability index came out at 1.99.

Take YESKGYNDDYYEESYFTTRTYGEP [Q2E]: the protein stability index stood at 3.62.

With YQSIGYNDDYYEESYFTTRTYGEP [K4I], the protein stability index is 1.98.

In the case of YQSYGYNDDYYEESYFTTRTYGEP [K4Y], the protein stability index amounted to 2.06.

For YQSPGYNDDYYEESYFTTRTYGEP [K4P], the protein stability index is 2.5.

YQSFGYNDDYYEESYFTTRTYGEP [K4F]: the protein stability index amounted to 1.69.

As to YQSNGYNDDYYEESYFTTRTYGEP [K4N], the protein stability index turned out to be 2.36.

Regarding YQSCGYNDDYYEESYFTTRTYGEP [K4C], the protein stability index came out at 2.63.

Consider YQSGGYNDDYYEESYFTTRTYGEP [K4G], for which the protein stability index was found to be 2.12.

YQSTGYNDDYYEESYFTTRTYGEP [K4T]: the protein stability index was 2.38.

As to YQSAGYNDDYYEESYFTTRTYGEP [K4A], the protein stability index stood at 2.36.

As for YQSQGYNDDYYEESYFTTRTYGEP [K4Q], the protein stability index is 2.39.

In the case of YQSEGYNDDYYEESYFTTRTYGEP [K4E], the protein stability index worked out at 3.46.

As to YQSWGYNDDYYEESYFTTRTYGEP [K4W], the protein stability index turned out to be 2.39.

Take YQSSGYNDDYYEESYFTTRTYGEP [K4S]: the protein stability index was 2.3.

For YQSMGYNDDYYEESYFTTRTYGEP [K4M], the protein stability index turned out to be 2.32.

For YQSVGYNDDYYEESYFTTRTYGEP [K4V], the protein stability index was found to be 2.54.

Turning to YQSLGYNDDYYEESYFTTRTYGEP [K4L], the protein stability index was 2.06.

Regarding YQSHGYNDDYYEESYFTTRTYGEP [K4H], the protein stability index came out at 1.97.

On to YQSRGYNDDYYEESYFTTRTYGEP [K4R], for which the protein stability index was determined as 2.44.

For the variant YQSDGYNDDYYEESYFTTRTYGEP [K4D], the protein stability index stood at 3.33.

As to KQSKGYNDDYYEESYFTTRTYGEP [Y1K], the protein stability index turned out to be 3.63.

In the case of CQSKGYNDDYYEESYFTTRTYGEP [Y1C], the protein stability index came to 3.02.

NQSKGYNDDYYEESYFTTRTYGEP [Y1N]: the protein stability index worked out at 3.9.

On to DQSKGYNDDYYEESYFTTRTYGEP [Y1D], for which the protein stability index stood at 4.46.

As for QQSKGYNDDYYEESYFTTRTYGEP [Y1Q], the protein stability index is 4.15.

Regarding LQSKGYNDDYYEESYFTTRTYGEP [Y1L], the protein stability index came to 2.92.

For the variant TQSKGYNDDYYEESYFTTRTYGEP [Y1T], the protein stability index came out at 3.7.

For the variant GQSKGYNDDYYEESYFTTRTYGEP [Y1G], the protein stability index worked out at 3.8.

Take AQSKGYNDDYYEESYFTTRTYGEP [Y1A]: the protein stability index came out at 3.8.

As to RQSKGYNDDYYEESYFTTRTYGEP [Y1R], the protein stability index was found to be 3.48.

On to EQSKGYNDDYYEESYFTTRTYGEP [Y1E], for which the protein stability index came to 4.2.

For the variant FQSKGYNDDYYEESYFTTRTYGEP [Y1F], the protein stability index was determined as 1.97.

SQSKGYNDDYYEESYFTTRTYGEP [Y1S]: the protein stability index came to 3.67.

PQSKGYNDDYYEESYFTTRTYGEP [Y1P]: the protein stability index worked out at 3.63.

VQSKGYNDDYYEESYFTTRTYGEP [Y1V]: the protein stability index turned out to be 3.67.

Turning to WQSKGYNDDYYEESYFTTRTYGEP [Y1W], the protein stability index worked out at 2.61.

Take IQSKGYNDDYYEESYFTTRTYGEP [Y1I]: the protein stability index amounted to 3.2.

Regarding MQSKGYNDDYYEESYFTTRTYGEP [Y1M], the protein stability index was 3.22.

Turning to HQSKGYNDDYYEESYFTTRTYGEP [Y1H], the protein stability index came out at 3.76.

As for YQTKGYNDDYYEESYFTTRTYGEP [S3T], the protein stability index came out at 2.54.

In the case of YQKKGYNDDYYEESYFTTRTYGEP [S3K], the protein stability index turned out to be 2.75.

With YQHKGYNDDYYEESYFTTRTYGEP [S3H], the protein stability index is 2.42.

Regarding YQCKGYNDDYYEESYFTTRTYGEP [S3C], the protein stability index turned out to be 1.95.

With YQMKGYNDDYYEESYFTTRTYGEP [S3M], the protein stability index came out at 2.38.

On to YQFKGYNDDYYEESYFTTRTYGEP [S3F], for which the protein stability index amounted to 2.25.

In the case of YQLKGYNDDYYEESYFTTRTYGEP [S3L], the protein stability index is 2.17.

YQVKGYNDDYYEESYFTTRTYGEP [S3V]: the protein stability index came out at 1.95.

For YQAKGYNDDYYEESYFTTRTYGEP [S3A], the protein stability index came out at 2.23.

For the variant YQQKGYNDDYYEESYFTTRTYGEP [S3Q], the protein stability index worked out at 2.43.

YQWKGYNDDYYEESYFTTRTYGEP [S3W]: the protein stability index was 1.72.

Turning to YQGKGYNDDYYEESYFTTRTYGEP [S3G], the protein stability index came out at 2.18.

Regarding YQIKGYNDDYYEESYFTTRTYGEP [S3I], the protein stability index amounted to 2.14.

In the case of YQDKGYNDDYYEESYFTTRTYGEP [S3D], the protein stability index turned out to be 3.31.

For YQRKGYNDDYYEESYFTTRTYGEP [S3R], the protein stability index was 2.75.

With YQEKGYNDDYYEESYFTTRTYGEP [S3E], the protein stability index stood at 3.25.

For the variant YQPKGYNDDYYEESYFTTRTYGEP [S3P], the protein stability index worked out at 2.72.

As to YQYKGYNDDYYEESYFTTRTYGEP [S3Y], the protein stability index was 2.47.

Turning to YQNKGYNDDYYEESYFTTRTYGEP [S3N], the protein stability index came out at 2.45.

In the case of YQSKCYNDDYYEESYFTTRTYGEP [G5C], the protein stability index came out at 1.95.

Consider YQSKAYNDDYYEESYFTTRTYGEP [G5A], for which the protein stability index was found to be 1.93.

The next data set covers variants of B2. The description is as above. The following applies: c terminus: a fixed tail appended.
For the variant YVKAKKSIDKDEEFAGSSPQSSKT [S24T], the protein stability index was determined as 2.85.

For the variant YVKAKKSIDKDEEFAGSSPQSSKI [S24I], the protein stability index was found to be 3.19.

In the case of YVKAKKSIDKDEEFAGSSPQSSKW [S24W], the protein stability index is 3.03.

Take YVKAKKSIDKDEEFAGSSPQSSKF [S24F]: the protein stability index is 2.79.

Consider YVKAKKSIDKDEEFAGSSPQSSKY [S24Y], for which the protein stability index came to 2.83.

Consider YVKAKKSIDKDEEFAGSSPQSSKH [S24H], for which the protein stability index is 3.33.

Turning to YVKAKKSIDKDEEFAGSSPQSSKE [S24E], the protein stability index was determined as 3.55.

Consider YVKAKKSIDKDEEFAGSSPQSSKQ [S24Q], for which the protein stability index amounted to 3.

In the case of YVKAKKSIDKDEEFAGSSPQSSKK [S24K], the protein stability index was found to be 2.58.

For YVKAKKSIDKDEEFAGSSPQSSKN [S24N], the protein stability index worked out at 3.61.

Take YVKAKKSIDKDEEFAGSSPQSSKP [S24P]: the protein stability index is 3.02.

Consider YVKAKKSIDKDEEFAGSSPQSSKL [S24L], for which the protein stability index was 2.71.

As for YVKAKKSIDKDEEFAGSSPQSSKV [S24V], the protein stability index was 2.33.

Consider YVKAKKSIDKDEEFAGSSPQSSKG [S24G], for which the protein stability index is 2.93.

As for YVKAKKSIDKDEEFAGSSPQSSKM [S24M], the protein stability index is 3.02.

Regarding YVKAKKSIDKDEEFAGSSPQSSKR [S24R], the protein stability index amounted to 2.37.
